From article PMC11574045, “A cofactor-induced repressive type of transcription factor condensation can be induced by synthetic peptides to suppress tumorigenesis” (The EMBO Journal, 2024)

B1: EZH1 (protein, UniProt Q92800 1-747, looked up)
Histone-lysine …: MEIPNPPTSKCITYWKRKVKSEYMRLRQLKRLQANMGAKALYVANFAKVQEKTQILNEEWKKLRVQPVQSMKPVSGHPFLKKCTIESIFPGFASQHMLMRSLNTVALVPIMYSWSPLQQNFMVEDETVLCNIPYMGDEVKEEDETFIEELINNYDGKVHGEEEMIPGSVLISDAVFLELVDALNQYSDEEEEGHNDTSDGKQDDSKEDLPVTRKRKRHAIEGNKKSSKKQFPNDMIFSAIASMFPENGVPDDMKERYRELTEMSDPNALPPQCTPNIDGPNAKSVQREQSLHSFHTLFCRRCFKYDCFLHPFHATPNVYKRKNKEIKIEPEPCGTDCFLLLEGAKEYAMLHNPRSKCSGRRRRRHHIVSASCSNASASAVAETKEGDSDRDTGNDWASSSSEANSRCQTPTKQKASPAPPQLCVVEAPSEPVEWTGAEESLFRVFHGTYFNNFCSIARLLGTKTCKQVFQFAVKESLILKLPTDELMNPSQKKKRKHRLWAAHCRKIQLKKDNSSTQVYNYQPCDHPDRPCDSTCPCIMTQNFCEKFCQCNPDCQNRFPGCRCKTQCNTKQCPCYLAVRECDPDLCLTCGASEHWDCKVVSCKNCSIQRGLKKHLLLAPSDVAGWGTFIKESVQKNEFISEYCGELISQDEADRRGKVYDKYMSSFLFNLNNDFVVDATRKGNKIRFANHSVNPNCYAKVVMVNGDHRIGIFAKRAIQAGEELFFDYRYSQADALKYVGIERETDVL
B2: FLI1 (protein, UniProt Q01543 1-452, looked up)
Friend leukemia integration 1 …: MDGTIKEALSVVSDDQSLFDSAYGAAAHLPKADMTASGSPDYGQPHKINPLPPQQEWINQPVRVNVKREYDHMNGSRESPVDCSVSKCSKLVGGGESNPMNYNSYMDEKNGPPPPNMTTNERRVIVPADPTLWTQEHVRQWLEWAIKEYSLMEIDTSFFQNMDGKELCKMNKEDFLRATTLYNTEVLLSHLSYLRESSLLAYNTTSHTDQSSRLSVKEDPSYDSVRRGAWGNNMNSGLNKSPPLGGAQTISKNTEQRPQPDPYQILGPTSSRLANPGSGQIQLWQFLLELLSDSANASCITWEGTNGEFKMTDPDEVARRWGERKSKPNMNYDKLSRALRYYYDKNIMTKVHGKRYAYKFDFHGIAQALQPHPTESSMYKYPSDISYMPSYHAHQQKVNFVPPHPSSMPVTSSSFFGAASQYWTSPTGGIYPNPNVPRHPNTHVPSHLGSYY
B3: ETV1 (protein, UniProt P50549 1-477, looked up)
ETS translocation variant 1: MDGFYDQQVPYMVTNSQRGRNCNEKPTNVRKRKFINRDLAHDSEELFQDLSQLQETWLAEAQVPDNDEQFVPDYQAESLAFHGLPLKIKKEPHSPCSEISSACSQEQPFKFSYGEKCLYNVSAYDQKPQVGMRPSNPPTPSSTPVSPLHHASPNSTHTPKPDRAFPAHLPPSQSIPDSSYPMDHRFRRQLSEPCNSFPPLPTMPREGRPMYQRQMSEPNIPFPPQGFKQEYHDPVYEHNTMVGSAASQSFPPPLMIKQEPRDFAYDSEVPSCHSIYMRQEGFLAHPSRTEGCMFEKGPRQFYDDTCVVPEKFDGDIKQEPGMYREGPTYQRRGSLQLWQFLVALLDDPSNSHFIAWTGRGMEFKLIEPEEVARRWGIQKNRPAMNYDKLSRSLRYYYEKGIMQKVAGERYVYKFVCDPEALFSMAFPDNQRPLLKTDMERHINEEDTVPLSHFDESMAYMPEGGCCNPHPYNEGYVY
B4: FOSB (protein, UniProt P53539 1-338, looked up)
Protein FosB: MFQAFPGDYDSGSRCSSSPSAESQYLSSVDSFGSPPTAAASQECAGLGEMPGSFVPTVTAITTSQDLQWLVQPTLISSMAQSQGQPLASQPPVVDPYDMPGTSYSTPGMSGYSSGGASGSGGPSTSGTTSGPGPARPARARPRRPREETLTPEEEEKRRVRRERNKLAAAKCRNRRRELTDRLQAETDQLEEEKAELESEIAELQKEKERLEFVLVAHKPGCKIPYEEGPGPGPLAEVRDLPGSAPAKEDGFSWLLPPPPPPPLPFQTSQDAPPNLTASLFTHSEVQVLGDPFPVVNPSYTSSFVLTCPEVSAFAGAQRTSGSDQPSDPLNSPSLLAL
B5: FOSL1 (protein, UniProt P15407 1-271, looked up)
Fos-related antigen 1: MFRDFGEPGPSSGNGGGYGGPAQPPAAAQAAQQKFHLVPSINTMSGSQELQWMVQPHFLGPSSYPRPLTYPQYSPPQPRPGVIRALGPPPGVRRRPCEQISPEEEERRRVRRERNKLAAAKCRNRRKELTDFLQAETDKLEDEKSGLQREIEELQKQKERLELVLEAHRPICKIPEGAKEGDTGSTSGTSSPPAPCRPVPCISLSPGPVLEPEALHTPTLMTTPSLTPFTPSLVFTYPSTPEPCASAHRKSSSSSGDPSSDPLGSPTLLAL
B6: ESRRA (protein, UniProt P11474 1-423, looked up)
Steroid hormone receptor ERR1: MSSQVVGIEPLYIKAEPASPDSPKGSSETETEPPVALAPGPAPTRCLPGHKEEEDGEGAGPGEQGGGKLVLSSLPKRLCLVCGDVASGYHYGVASCEACKAFFKRTIQGSIEYSCPASNECEITKRRRKACQACRFTKCLRVGMLKEGVRLDRVRGGRQKYKRRPEVDPLPFPGPFPAGPLAVAGGPRKTAAPVNALVSHLLVVEPEKLYAMPDPAGPDGHLPAVATLCDLFDREIVVTISWAKSIPGFSSLSLSDQMSVLQSVWMEVLVLGVAQRSLPLQDELAFAEDLVLDEEGARAAGLGELGAALLQLVRRLQALRLEREEYVLLKALALANSDSVHIEDAEAVEQLREALHEALLEYEAGRAGPGGGAERRRAGRLLLTLPLLRQTAGKVLAHFYGVKLEGKVPMHKLFLEMLEAMMD
B7: FERD3L (protein, UniProt Q96RJ6 1-166, looked up)
Fer3-like protein: MAAYPESCVDTTVLDFVADLSLASPRRPLLCDFAPGVSLGDPALALREGRPRRMARFEEGDPEEEECEVDQGDGEEEEEEERGRGVSLLGRPKRKRVITYAQRQAANIRERKRMFNLNEAFDQLRRKVPTFAYEKRLSRIETLRLAIVYISFMTELLESCEKKESG
B8: ETV2 (protein, UniProt P41163 1-335, looked up)
ETS translocation variant 2: MDLWNWDEASLQEVPPGDKLTGLGAEFGFYFPEVALQEDTPITPMNVEGCWKGFPELDWNPALPHEDVPFQAEPVAHPLPWSRDWTDLGCNTSDPWSCASQTPGPAPPGTSPSPFVGFEGATGQNPATSAGGVPSWSHPPAAWSTTSWDCSVGPSGATYWDNGLGGEAHEDYKMSWGGSAGSDYTTTWNTGLQDCSIPFEGHQSPAFTTPSKSNKQSDRATLTRYSKTNHRGPIQLWQFLLELLHDGARSSCIRWTGNSREFQLCDPKEVARLWGERKRKPGMNYEKLSRGLRYYYRRDIVLKSGGRKYTYRFGGRVPVLAYQDDMGHLPGAEGQ
B9: ETV7 (protein, UniProt Q9Y603 1-341, looked up)
Transcription factor ETV7: MQEGELAISPISPVAAMPPLGTHVQARCEAQINLLGEGGICKLPGRLRIQPALWSREDVLHWLRWAEQEYSLPCTAEHGFEMNGRALCILTKDDFRHRAPSSGDVLYELLQYIKTQRRALVCGPFFGGIFRLKTPTQHSPVPPEEVTGPSQMDTRRGHLLQPPDPGLTSNFGHLDDPGLARWTPGKEESLNLCHCAELGCRTQGVCSFPAMPQAPIDGRIADCRLLWDYVYQLLLDTRYEPYIKWEDKDAKIFRVVDPNGLARLWGNHKNRVNMTYEKMSRALRHYYKLNIIKKEPGQKLLFRFLKTPGKMVQDKHSHLEPLESQEQDRIEFKDKRPEISP
B10: FHL2 (protein, UniProt Q14192 1-279, looked up)
Four and a half LIM domains …: MTERFDCHHCNESLFGKKYILREESPYCVVCFETLFANTCEECGKPIGCDCKDLSYKDRHWHEACFHCSQCRNSLVDKPFAAKEDQLLCTDCYSNEYSSKCQECKKTIMPGTRKMEYKGSSWHETCFICHRCQQPIGTKSFIPKDNQNFCVPCYEKQHAMQCVQCKKPITTGGVTYREQPWHKECFVCTACRKQLSGQRFTARDDFAYCLNCFCDLYAKKCAGCTNPISGLGGTKYISFEERQWHNDCFNCKKCSLSLVGRGFLTERDDILCPDCGKDI
B11: AFF3 (protein, UniProt P51826 1-1226, looked up)
AF4/FMR2 family member 3: MDSFDLALLQEWDLESLCVYEPDRNALRRKERERRNQETQQDDGTFNSSYSLFSEPYKTNKGDELSNRIQNTLGNYDEMKDFLTDRSNQSHLVGVPKPGVPQTPVNKIDEHFVADSRAQNQPSSICSTTTSTPAAVPVQQSKRGTMGWQKAGHPPSDGQQRATQQGSLRTLLGDGVGRQQPRAKQVCNVEVGLQTQERPPAMAAKHSSSGHCVQNFPPSLASKPSLVQQKPTAYVRPMDGQDQAPDESPKLKSSSETSVHCTSYRGVPASKPEPARAKAKLSKFSIPKQGEESRSGETNSCVEEIIREMTWLPPLSAIQAPGKVEPTKFPFPNKDSQLVSSGHNNPKKGDAEPESPDNGTSNTSMLEDDLKLSSDEEENEQQAAQRTALRALSDSAVVQQPNCRTSVPSSKGSSSSSSSGSSSSSSDSESSSGSDSETESSSSESEGSKPPHFSSPEAEPASSNKWQLDKWLNKVNPHKPPILIQNESHGSESNQYYNPVKEDVQDCGKVPDVCQPSLREKEIKSTCKEEQRPRTANKAPGSKGVKQKSPPAAVAVAVSAAAPPPAVPCAPAENAPAPARRSAGKKPTRRTERTSAGDGANCHRPEEPAAADALGTSVVVPPEPTKTRPCGNNRASHRKELRSSVTCEKRRTRGLSRIVPKSKEFIETESSSSSSSSDSDLESEQEEYPLSKAQTVAASASSGNDQRLKEAAANGGSGPRAPVGSINARTTSDIAKELEEQFYTLVPFGRNELLSPLKDSDEIRSLWVKIDLTLLSRIPEHLPQEPGVLSAPATKDSESAPPSHTSDTPAEKALPKSKRKRKCDNEDDYREIKKSQGEKDSSSRLATSTSNTLSANHCNMNINSVAIPINKNEKMLRSPISPLSDASKHKYTSEDLTSSSRPNGNSLFTSASSSKKPKADSQLQPHGGDLTKAAHNNSENIPLHKSRPQTKPWSPGSNGHRDCKRQKLVFDDMPRSADYFMQEAKRMKHKADAMVEKFGKALNYAEAALSFIECGNAMEQGPMESKSPYTMYSETVELIRYAMRLKTHSGPNATPEDKQLAALCYRCLALLYWRMFRLKRDHAVKYSKALIDYFKNSSKAAQAPSPWGASGKSTGTPSPMSPNPSPASSVGSQGSLSNASALSPSTIVSIPQRIHQMAANHVSITNSILHSYDYWEMADNLAKENREFFNDLDLLMGPVTLHSSMEHLVQYSQQGLHWLRNSAHLS

Tested on: HEK293FT cells transfected with TF library
Assay: Screening of TF condensates based on fluorescent puncta
Type: cell-based
Conditions: Figure 1B numerical data; TF library screen, one value per transcriptional factor
Experimental: TF plasmids were automatically added to black-walled 384-well plates at 80 ng per well to reach a final concentration of 1.6 μg/ml. Polyethylenimine (PEI, Sigma) was then added to the plasmid-loaded plates at 240 ng per well (4.8 μg/ml). Subsequently, HEK293FT cells were seeded into the plate at 2000 cells per well. After 60 h, cells were cultured in medium with or without glucose for 12 h, and then fixed with 4% paraformaldehyde (PFA) at room temperature for 30 min. After three washes with PBS, fixed cells were permeabilized with 0.05% Triton X-100 for 15 min. Thereafter, cells were blocked with 5% BSA for 1 h, and then incubated overnight with anti-Flag (Sigma F3165, 1:200) and anti-GAL4 (Abbkine ABP57232, 1:200) primary antibodies at 4 °C. The cells were then gently washed with PBS, followed by being incubated with Alexa Fluor Plus 488 goat anti-mouse IgG secondary antibody (Thermo A32723, 1:400) or Alexa Fluor Plus 488 goat anti-rabbit IgG secondary antibody (Thermo A32731, 1:400) for 1 h. The plates were kept at 4 °C in the dark before being analyzed using an Opera System (Perkin Elmer). Fifty random fields per well were scanned and analyzed using the Columbus Plus Image Data Storage and Analysis System (Perkin Elmer).

| Molecule | Z score of condensed fraction |
| --- | --- |
| B1 | -2.133 |
| B2 | 0.3939 |
| B3 | -0.2404 |
| B4 | 1.202 |
| B5 | -0.3444 |
| B6 | 0.7125 |
| B7 | 0.6489 |
| B8 | 0.6041 |
| B9 | -0.026 |
| B10 | 0.8678 |
| B11 | -0.8104 |
